Assay: soluble fraction after stress (log2 fold change); higher = more stays soluble; pooled small domains, quantitative proteomics
Conditions: stress: 50 degC
How it was run: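 Quantitative proteomics served as the high-throughput read-out for pooled custom libraries of small protein domains. Each was stressed at 50°C. Aggregation propensity is expressed as the base-two log fold change in soluble protein after stress. A higher value means a larger share of the protein remains in solution.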

| Sequence | soluble fraction (log2) |
| --- | --- |
| HMENKVLVITEEEKGKRLDVYLAAALEVSRSYAQQLIQGEDVVVNDKQVKANYRLSEGDVVQVQLD | ≥ 0.62 |
| HMWDRFGELDSAEEINRIAAAELREGDIDALKVLAEENGLDKDDVEDYIDRLIDELTTPELAAIGKLDV | 0.0934 |
| HMLNLNILTDKEKFIAKLISRGLSDSLIAKELYISISTVRSHVNSIYGKTNIKNRSHLASSFLYFELGNLL | -0.135 |
| HMQQLDDDTVAYVADNGIAVKSKNGKELSVDTSGLSYDIIMDMFRNLPRNGDFFSSKYWSDNIQKAQAR | 0.41 |
| HMDVNPETLSYYIERADISLDELRTSVKGIDLFLTGEKQPTFNQISNIAKKLNIPTGLLLINKPIEI | -0.375 |
| HMADEIQIGLQKAIQSLPEKQKLVFSMRYYDEIPYDEMSKILDMSVGTLKTNYHYAKQKIEDFLQNH | -1.05 |
| HMDTIASESVRNRIEELISNENPKKPLSDQALVKMLQEFDIKIARRTVAKYREMLKIPPSSKRKQV | 0.0652 |
| HMKRANGTGSVFKLNGKRRNPWVARVTQGFDDKGRQKYVNLGYYKTKREAENELLSYNSNPYDAN | 0.214 |
| HMIIVMSANANAREISEVIARIRAMGYDVHLSHGKERTIIGVIGRGTPIDREQLSLMSGVQQVMPV | -1.03 |
| HMARKISVEALGKYFPNSPMLAAAVAVTGVMKKDEFIHEMRASYKHKFAKKPEVIDGNMKALTMTFEA | -0.126 |
| HMQHYQFEVDEASSKKRLDVFLSENLPEISRSRLKKLIDEKRVTVNEMSRPAGYKVRVKEKIEFHIPPL | -0.402 |
| HMITNEDINIKKLLVVMKDTPLSANEIMDKLNIKSKETLRNMYLDPAIKKGLINLTIPDKPTSKNQKYYK | -0.0903 |
| HMYVTGSAIRRLREKRKLTQAQLAAALSVSDKTVSKWETARGLPDITLLEPLARALQVSVPELLSGEEV | -0.255 |
| HMSNSMISKDKAMSIALAKVSGATSSNIYIELEKDDGRYTYEGEINFNNKEYEFEIDAYTGNILKWEVDSI | -0.333 |
| HMNESPVLAVLTPTERKVASLVAEGLTNQAIAARMILAEGTVKNHVSTLLHKLQAPDRTALALTLYKAFQ | -0.469 |
| HMAKDDFMSFVKAVWPEFIEGAHHRVIAQKFNDLATGKITRLIVNMPPRHTKSEFASYLLPAW | 0.107 |
| HMRWAAIMGREVAAHSTPESLVEGKLHIRTDTTAWATQLRLMSADIVRRLNEVLGEGTVLEVDVRG | -1.96 |
| HMDTNTIIGLRIKALRTEKKYTLKYLSENSGLSIGFLSQLERGMTSVAIDSLDKISKVLDVELSSFFN | -2.93 |
| HMAIKTGAVTGHGVKVRKGPSTNEKAIHDVLYGSRLQILEEKNGFLKAKFEDGTTGWISKQFVTTTDKNLL | 0.223 |
| HMEAYMVPNVKNKTLNEAQQALSNQKLKGLVIDSSYVKGVPDGMVLDQNPAGGARVKEGRTIYLTVTTS | 0.318 |
| HMALLSNTVDELHAGMRLDSYLFESGLYPSRSFAVKQIEAGKVFLNGDAVTKKTLVSNGDFIVYELEE | -0.778 |
| HMNMDLGHSISKLRTDANLTQEKFAQILNVSRQTVQKWEYGEALPDIHNIIKIAKFFNISLDALVLRS | -0.159 |
| HMNHSITLTERKNLLITGVKKIENFDKEEFLIETTMGFLVVKGDGLELIKLDTISGNVSIKGIVNGFTYID | 0.223 |
| HMIADPLVINKLMDSMALAINDYNPDSVEPVLDELRQYFSENQLRELSKAMDDFDFDEALNALTLLRT | -0.382 |
| HMEKPTEITLSNRVSVQELAEKMYVSETDIIRTLFLDGRIININQVLDIDTAIRVGEQLGIKIKII | -0.496 |
| HMKPFVVVPIDQVRVGMFIQLDLGWMQHPFPVGSFRVASEAQIDTLRSLDLESVRYLPAKSDPAFQQP | -2.1 |
| HMKLSIGGTIEKLRRNKGLSHQQLANALGVTPDTVEKWEINAAYPDITLLSPIARLLGTTLDALLMF | -0.649 |
| HMETSLVIQIDGAVNSPGIYQVTPGTRIFEALELAGGVREDAQTEALNLALPVYDGQRISIPSSFA | 0.0796 |

| Sequence | soluble fraction (log2) |
| --- | --- |
| HMKGVPGIGDYVKLSGGSTVGKVLSISGKKAEVAFGLLRTTTELSKLEKVRKPKELLQSGVSS | 0.269 |
| HMPAELGVVVRNANLRSGPGTKYAIVGSAPAGTTVRIAGTNKAGDWYHLSSGRWIAAFLVDRN | -0.941 |
| HMRKYKIKEELPDNIYKIIQDNPGIVQKDIYDILGREYQQNISSYIYSMDKNGVIKRDKHGNSYKLYL | -0.318 |
| HMIPEILNGYTKWGDDEPFEDHAGPFYMKMMPSTGRHLSAFIPEQRHMNGGGFLHGGMLMSFADYALFVI | 0.00747 |
| HMHKIRRQTKITKSLLDQIEGIGSSRKKALLNHFGSAKAVGEAGETDLGTVKGISNSLAKKIYDFFHAT | -0.281 |
| HMKFHENLIALRRREGWSQEELGNRIGVTRQTVSKWELGLTTPELEKLVQLADVFGMTTDQLVGR | -0.146 |
| HMTRETTQAWWEARQTLPSGEQRSAASLSQEASHVRRFYRWAMQQGLTDRNPADWLPDVRQK | -0.232 |
| HMEGIAYDINTAPEHIDLKAEDMMATFNIGKTALWRWVKQKILPPPYEYRSQAAHWTIGQIRDWKTA | -0.0672 |
| HMSMEIQEIIRQLREKNDWSQEDMAERVGLSKNGYAKIERGETNLNLERLEQIANLFDLSVIDLIEMS | -0.796 |
| HMPAAFALLTDREREIAALIAQRLTNREIAEKLYLSEGSVKQYVNQLYAKLGIEGDTRTKRRRLAEQAK | 0.11 |
| HMLDPVLQREKDESFTDYHIRLFKNKDTYHIDTKTIATLLNKDQGTNYDESKWRKDFKQYERWNDYIMSKN | 0.145 |
| HMEQAAQPQTGFDPRRLKAGDAVHLLALDQRGVLLEDPKPGAESAPVSVGVAGVRVVVPLREMEALPAG | 0.157 |
| HMDGVPPAGSRIRLTVSTQVGDKEFEGTLVPPAGVDLLTLKLANGYNLSHSIADVREVVLIEEGLQGEEP | -0.0515 |
| HMGSKDLPFSTFMSEIDKGNITSVDIRGNEIQGTFANGTKFRTYSPNYPNLVEKLNGKGVSITAGPV | 0.215 |
| HMSSEDTQSRDRARKELSNEMSRIMKRYGLDYQPRDNADDIMNRLKAAGADENTLAYVQEKLK | 0.134 |
| HMETPLSAADFKIVFGEEYEIGTDANGLPKMGSRINRQLQNRFLTWASVNKRKATMSAYQDWVASDPAAQ | -0.336 |
| HMDRWSLLTLTTLAGGTLRFTELKRAIGDISQRMLAQTLRTLEREGYVSRKVYATIPPKVEYRLTALGQSL | -3.05 |
| HMHLTNIPKGFTPSFDTKQWIVEEFGERYNYDNELKIFINHYRASGTTKSDWQYAFRSWLLRAKKFT | -2.32 |
| HMGETISVPAVRSLAYDRAVDMLTAEGLKGIVADSVYDNRTQPGTVIEQNPKAGTIVKEGREVYLTINA | 0.157 |
| HMPRPRIHSVVRGDTLYGISRQYGVAMSKLASLNGLKSPYRIMVGRSLRLPSAIEAERDRTAREVVQ | -1.45 |
| HMTEKIRLTVDEAGKNQRVDKYISTLLTQFSRSSIKTWIETGNILLDNTRTKPRTLLSPGQVIDIQPRFED | -0.643 |
| HMDMQNIQKGLSAIEPGRTFSREEYYAAIQNGSEMLLKEDALAYSLRKSLSDGDIVRVSWNQYAIP | -0.116 |
| HMEVAAAENYRSKLSSFAKDTISVWQTELLLGTISDDDKASLTEWMAYIKALQVVDTSDPESITWPTEPT | -1.45 |
| HMSKQKRIKYFLSILNIKSIKQFRKKDLDYFYQKRFIEIQKSSKDKKLVSNQLIELNAAKEYLDEIDFEN | -1.93 |
| HMIYQNVINLLKNRLNSSIYNIGDLLPSEKELAEHYDVSRNTLRKALKTLEEEGMIERRHGSGTYLRNK | -0.969 |
| HMEATEFYLEDLTGQMYNDVVNDEKYAGKIVFEKEEVQSDGEEAIGQILNQRPAGNMNVRIGTTVTLVVNA | -0.0405 |
| HMKDEGSLKVIGQMVVIGIPQSEAKRFANTYTVAQIRAALQYTQKRSEDKNASKLENVAAYFRQALVRNWG | -1.36 |
